Data set [1] concerns the molecule itself. Nature of the data set: SDS-PAGE and western blot; heparin fraction of HeLa nuclear extract, blot probed for PUF60. A general note: In western blotting, separated proteins are transferred to a membrane and probed.
Data set [2] deals with the molecule itself. Nature of the data set: SDS-PAGE and western blot; His-tagged PUF60 (~3.6 pmol) purified from HEK-293E cells, blot probed for PUF60.

B1: PUF60 (endogenous, heparin fraction of HeLa nuclear extract) (natural protein, human (endogenous in HeLa), UniProt Q9UHX1 1-559, looked up)
chain: MATATIALQVNGQQGGGSEPAAAAAVVAAGDKWKPPQGTDSIKMENGQSTAAKLGLPPLTPEQQEALQKAKKYAMEQSIKSVLVKQTIAHQQQQLTNLQMAAVTMGFGDPLSPLQSMAAQRQRALAIMCRVYVGSIYYELGEDTIRQAFAPFGPIKSIDMSWDSVTMKHKGFAFVEYEVPEAAQLALEQMNSVMLGGRNIKVGRPSNIGQAQPIIDQLAEEARAFNRIYVASVHQDLSDDDIKSVFEAFGKIKSCTLARDPTTGKHKGYGFIEYEKAQSSQDAVSSMNLFDLGGQYLRVGKAVTPPMPLLTPATPGGLPPAAAVAAAAATAKITAQEAVAGAAVLGTLGTPGLVSPALTLAQPLGTLPQAVMAAQAPGVITGVTPARPPIPVTIPSVGVVNPILASPPTLGLLEPKKEKEEEELFPESERPEMLSEQEHMSISGSSARHMVMQKLLRKQESTVMVLRNMVDPKDIDDDLEGEVTEECGKFGAVNRVIIYQEKQGEEEDAEIIVKIFVEFSIASETHKAIQALNGRWFAGRKVVAEVYDQERFDNSDLSA
notes: PUF60 of HeLa nuclear extract; Seen as a monomer and as an SDS-resistant dimer; also called FIR; RoBP1; source: endogenous, HeLa nuclear extract, fractionated (20-40% ammonium sulfate, CsCl gradient, Poros heparin column)
As usually defined, the stoichiometry N is the number of molecules, sites or subunits per partner or assembly. Consider B1, for which, in data set [1], the “stoichiometry N” value was found to be 2.

B2: His-tagged PUF60 (PUF60S, HEK-293E) (natural protein, human, UniProt Q9UHX1-2 1-542, looked up)
chain: MATATIALQVNGQQGGGSEPAAAAAVVAAGDKWKPPQGTDSIKMENGQSTAAKLGLPPLTPEQQEALQKAKKYAMEQSIKSVLVKQTIAHQQQQLTNLQMAAQRQRALAIMCRVYVGSIYYELGEDTIRQAFAPFGPIKSIDMSWDSVTMKHKGFAFVEYEVPEAAQLALEQMNSVMLGGRNIKVGRPSNIGQAQPIIDQLAEEARAFNRIYVASVHQDLSDDDIKSVFEAFGKIKSCTLARDPTTGKHKGYGFIEYEKAQSSQDAVSSMNLFDLGGQYLRVGKAVTPPMPLLTPATPGGLPPAAAVAAAAATAKITAQEAVAGAAVLGTLGTPGLVSPALTLAQPLGTLPQAVMAAQAPGVITGVTPARPPIPVTIPSVGVVNPILASPPTLGLLEPKKEKEEEELFPESERPEMLSEQEHMSISGSSARHMVMQKLLRKQESTVMVLRNMVDPKDIDDDLEGEVTEECGKFGAVNRVIIYQEKQGEEEDAEIIVKIFVEFSIASETHKAIQALNGRWFAGRKVVAEVYDQERFDNSDLSA
notes: PUF60S, the isoform of human PUF60 that lacks alternative exon 5; amplified from pGAD-GH-RoBPI-47,3 with the primers PUF60Hisstart and PUFresmutD; About 60% of the protein ran as an SDS-resistant dimer; also called recombinant PUF60; PUFS; source: HEK-293E, transiently transfected with pTT3-HisPUFS, purified (Ni-NTA agarose)
Consider B2, for which, in data set [2], the “stoichiometry N” value turned out to be 2.

Source of the values: PMC1888729, “Control of Pre-mRNA Splicing by the General Splicing Factors PUF60 and U2AF^65” (PLoS ONE, 2007).
